The target of test [1] is Met receptor on MDCK cells. Description: cell-based or functional assay.
Test [2] concerns the target T1, human FGFR1 beta (IIIc)-Fc (R&D Systems) (human, UniProt P11362-14 22-285, limits assumed).
T1 construct: Bought reagent; also called FGFR1-Fc; soluble FGFR1-Fc; not shown: Fc domain, detected with anti-Human IgG
T1 sequence (looked up): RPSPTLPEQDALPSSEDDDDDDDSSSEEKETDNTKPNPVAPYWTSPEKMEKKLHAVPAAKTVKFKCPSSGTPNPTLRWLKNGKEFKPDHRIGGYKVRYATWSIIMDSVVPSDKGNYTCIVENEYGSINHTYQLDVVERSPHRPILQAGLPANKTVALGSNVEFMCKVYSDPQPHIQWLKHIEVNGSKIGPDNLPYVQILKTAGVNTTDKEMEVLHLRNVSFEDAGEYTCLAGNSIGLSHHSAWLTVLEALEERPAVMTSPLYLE
Put plainly: flow cytometry on yeast displaying the peptide, stained for c-myc and FGFR1-Fc. As to the method:
FIG. 15. Non-binding of peptide artifacts to FGFR1-Fc. Yeast cells expressing RTTTS or HTTS peptides on their cell surface were incubated with 10 nM FGFR1-Fc. Cells were stained with fluorescent antibodies for expression (α-c-myc) and binding (α-FGFR1-Fc).
50,000 induced yeast cells were incubated with various concentrations of FGFR1-Fc in phosphate-buffered saline with 1 g/L BSA (PBSA) at room temperature. Cells were incubated in sufficiently large volumes to avoid ligand depletion and long enough times (typically 3 to 24 hours) to reach equilibrium. During the last 30 minutes of incubation, yeast cells were incubated with 1:2500 dilution of chicken anti-c-Myc (Invitrogen) in PBSA. Yeast were pelleted, washed, then incubated with 1:200 dilution of secondary antibodies on ice for 10 min: anti-Human IgG-FITC (Sigma Aldrich) against FGFR1-Fc and anti-chicken-IgY-PE (Santa Cruz Biotechnology) against anti-c-myc. Yeast were washed, pelleted, and resuspended in PBSA immediately before analysis by flow cytometry using EMD Millipore Guava EasyCyte. Flow cytometry data were analyzed using FlowJo (v7.6.1). Binding curves were plotted and Kd values were obtained using GraphPad Prism 6.

Test [3] deals with T2, Met-Fc fusion protein (R&D Systems) labeled with Alexa 488 (UniProt P08581 25-932, Alexa 488 label).
T2 construct: Bought reagent; also called Met-Fc A488; soluble Met-Fc; not shown: Fc domain
Put plainly: flow cytometry, yeast display, after heating to varying temperatures.

T2 sequence (P08581 25-932 limits assumed): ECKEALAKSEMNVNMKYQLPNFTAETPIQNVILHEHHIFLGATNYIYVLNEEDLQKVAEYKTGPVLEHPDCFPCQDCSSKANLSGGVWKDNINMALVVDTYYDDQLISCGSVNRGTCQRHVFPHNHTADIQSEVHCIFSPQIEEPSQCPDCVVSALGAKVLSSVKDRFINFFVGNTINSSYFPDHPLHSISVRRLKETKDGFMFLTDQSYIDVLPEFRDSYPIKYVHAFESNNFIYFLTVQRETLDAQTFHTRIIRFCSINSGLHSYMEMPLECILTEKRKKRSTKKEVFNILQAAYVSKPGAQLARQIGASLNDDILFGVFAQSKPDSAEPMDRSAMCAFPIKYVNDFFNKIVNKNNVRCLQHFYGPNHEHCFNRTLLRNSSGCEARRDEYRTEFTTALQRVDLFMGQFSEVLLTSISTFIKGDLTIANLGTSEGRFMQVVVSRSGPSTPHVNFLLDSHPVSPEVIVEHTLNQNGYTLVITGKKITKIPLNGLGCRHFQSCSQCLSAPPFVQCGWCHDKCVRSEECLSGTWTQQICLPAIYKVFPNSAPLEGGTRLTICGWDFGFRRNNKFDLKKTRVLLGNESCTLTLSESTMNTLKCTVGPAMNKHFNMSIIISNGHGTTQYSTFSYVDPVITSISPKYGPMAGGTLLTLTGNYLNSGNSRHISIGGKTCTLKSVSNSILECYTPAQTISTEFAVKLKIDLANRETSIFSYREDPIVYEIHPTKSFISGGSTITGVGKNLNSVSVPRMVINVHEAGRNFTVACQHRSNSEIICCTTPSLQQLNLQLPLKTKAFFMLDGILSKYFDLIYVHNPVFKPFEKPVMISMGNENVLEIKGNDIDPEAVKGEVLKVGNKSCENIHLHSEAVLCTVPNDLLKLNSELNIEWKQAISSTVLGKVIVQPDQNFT
Chain of Met receptor on MDCK cells (Q75ZY9 whole entry): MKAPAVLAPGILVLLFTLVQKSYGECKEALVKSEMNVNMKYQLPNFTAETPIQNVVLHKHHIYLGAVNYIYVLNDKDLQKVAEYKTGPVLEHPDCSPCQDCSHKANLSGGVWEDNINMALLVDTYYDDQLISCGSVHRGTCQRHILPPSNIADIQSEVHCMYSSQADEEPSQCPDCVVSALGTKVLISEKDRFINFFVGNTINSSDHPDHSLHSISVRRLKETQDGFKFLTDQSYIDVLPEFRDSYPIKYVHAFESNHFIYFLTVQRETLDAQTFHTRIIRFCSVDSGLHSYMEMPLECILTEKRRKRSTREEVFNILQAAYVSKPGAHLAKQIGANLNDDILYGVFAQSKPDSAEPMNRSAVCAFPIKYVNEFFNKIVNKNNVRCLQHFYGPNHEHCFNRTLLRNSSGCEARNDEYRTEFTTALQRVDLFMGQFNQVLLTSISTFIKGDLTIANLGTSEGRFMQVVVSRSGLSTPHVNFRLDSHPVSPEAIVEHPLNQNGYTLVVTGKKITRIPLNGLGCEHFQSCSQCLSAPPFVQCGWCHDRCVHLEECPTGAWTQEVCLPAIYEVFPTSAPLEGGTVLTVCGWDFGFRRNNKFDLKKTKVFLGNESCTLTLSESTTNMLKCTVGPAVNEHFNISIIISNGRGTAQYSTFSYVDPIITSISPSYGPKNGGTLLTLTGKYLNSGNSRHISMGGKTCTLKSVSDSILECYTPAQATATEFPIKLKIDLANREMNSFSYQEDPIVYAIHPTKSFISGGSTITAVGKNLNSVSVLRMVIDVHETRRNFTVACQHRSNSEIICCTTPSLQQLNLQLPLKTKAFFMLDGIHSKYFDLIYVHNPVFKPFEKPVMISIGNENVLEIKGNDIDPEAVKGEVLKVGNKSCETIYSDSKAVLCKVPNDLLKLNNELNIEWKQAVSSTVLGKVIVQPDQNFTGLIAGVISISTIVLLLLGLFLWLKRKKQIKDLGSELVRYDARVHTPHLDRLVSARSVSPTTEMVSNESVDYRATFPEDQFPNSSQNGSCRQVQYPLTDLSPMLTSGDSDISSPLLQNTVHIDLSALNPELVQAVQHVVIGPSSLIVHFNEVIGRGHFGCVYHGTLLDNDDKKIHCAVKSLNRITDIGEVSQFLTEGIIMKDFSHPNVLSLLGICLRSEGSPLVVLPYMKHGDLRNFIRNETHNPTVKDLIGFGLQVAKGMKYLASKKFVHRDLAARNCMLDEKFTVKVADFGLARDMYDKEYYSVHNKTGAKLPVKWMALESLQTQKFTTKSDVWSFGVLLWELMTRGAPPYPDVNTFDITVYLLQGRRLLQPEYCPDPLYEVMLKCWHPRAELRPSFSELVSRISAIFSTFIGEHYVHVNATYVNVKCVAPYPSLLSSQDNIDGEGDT

B1: Aras-4 (ligand)
chain: YAEGQGKRRNTIHEFKKSAKTTLIKIDPALRIKTEKANTADQCANRCTRSKGLPFTCKAFVFDKARKRCLWFPFNSMSSGVKKEFGHEFDLYENKAYIRDCIIGRGRNYRGTVSITKSGIKCQPWSAMIPHEHSFLPSSYRGEDLRENYCRNPRGEEGGPWCYTSDPEVRYEVCDIPQCSEVE
On to B1, for which the “inhibition of HGF-induced activation of Met, concentration against M2.2 D127A or NK1 N127A” value in test [1] was roughly 5 fold lower concentration.
Turning to RTTTS (also called peptide artifact) [RTTTS peptide displayed on yeast], the binding result in test [2] is “no binding (tested: 10 nM FGFR1-Fc)”.
The same measure, in the same setting: with HTTS (also called peptide artifact) [HTTS peptide displayed on yeast] the entry was “no binding (tested: 10 nM FGFR1-Fc)”.

B2: NK1 mutant M2.1 displayed on yeast (ligand)
chain: YAEGQRKRRNTIHEFKKSAKTTLIKIDPALKIKTEKVNTADQCANRCTRNKGLPFTCKAFVFDKARKQCLWFPFNSMSSGVKKEFGHEFDLYENKDYIRDCIIGKGRSYRGTVSITKSGIKCQPWSSMIPHEHSFLPSSYRGEDLQENYCRNPRGEEGGPWCFTSDPEVRYEVCDIPQCSEVE
notes: Yeast display fusion as for m10
Consider B2, for which the binding result in test [3] was “binds”.

B3: NK1 mutant M2.2 displayed on yeast (ligand)
chain: YAEGQRKRRNTIHEFKKSAKTTLIKIDPALKIKTEKVNTADQCANRCTRNKGLPFTCKAFVFDKARKRCLWFPFNSMSSGVKKEFGHEFDLYENKDYIRDCIIGNGRSYRGTVSITKSGIKCQPWSSMIPHEHSFLPSSYRGEDLRENYCRNPRGEEGGPWCFTSDPEVRYEVCDIPQCSEVE
notes: as for B2
With B3, the binding result in test [3] was “binds”.

The values above are taken from patent publication US20220023385A1 (Stanford University, published 2022).
